In article PMC9977783, “Ligand-specific changes in conformational flexibility mediate long-range allostery in the lac repressor” (Nature Communications, 2021):

Experiments:
[1] = biological target: LacI (Escherichia coli) (UniProt P03023); details: cited from earlier work
[2] = biological target: the molecule itself; test: SEC; purified LacI(1-331) after tag removal, buffer and concentration not given
[3] = biological target: LacI dimeric (lac repressor, tetramerization domain removed) (Escherichia coli, UniProt P03023 1-331); test: BLI; no IPTG; BLI: PBS with 0.2% BSA, 0.05% Tween-20, pH 8.0, room temperature, LacI 0-40 nM, global 1:1 kinetic fit; HDX/MS: 50 mM MOPS, 200 mM NaCl, 0.5 mM TCEP, pH 7.0, equilibrated at 4 C; details: protein: recombinant; 6xHis removed with TEV protease; chain copies: 2; label: 5'-biotin on forward strand; blunt

For LacI (from UniProt P03023), the Kd [1] is given as 80 nM.

B1: dimeric LacI (lac repressor, residues 1-331, without the tetramerization domain) (domain or fragment, E. coli, UniProt P03023 1-331, looked up)
chain: MKPVTLYDVAEYAGVSYQTVSRVVNQASHVSAKTREKVEAAMAELNYIPNRVAQQLAGKQSLLIGVATSSLALHAPSQIVAAIKSRADQLGASVVVSMVERSGVEACKAAVHNLLAQRVSGLIINYPLDDQDAIAVEAACTNVPALFLDVSDQTPINSIIFSHEDGTRLGVEHLVALGHQQIALLAGPLSSVSARLRLAGWHKYLTRNQIQPIAEREGDWSAMSGFQQTMQMLNEGIVPTAMLVANDQMALGAMRAITESGLRVGADISVVGYDDTEDSSCYIPPLTTIKQDFRLLGQTSVDRLLQLSQGQAVKGNQLLPVSLVKRKTTLA
notes: E. coli lac repressor (LacI), residues 1-331, tetramerization domain truncated; vector pET9a-6×His-LacI(1-331); His tag removed with TEV protease; also called LacI(1-331); apo-LacI; source: E. coli BL21(AI) ΔlacI-ZYA, purified (Ni-NTA, TEV cleavage, second Ni-NTA flowthrough)
B1: binds [2].

B2: Olac (LacO1 natural operator, BLI) (dsDNA)
DNA 1: AGTAGTGGAATTGTGAGCGGATAACAATTGACATTGTGAGCGGATAACAAGATACTGAGCACATCAGC
DNA 2: GCTGATGTGCTCAGTATCTTGTTATCCGCTCACAATGTCAATTGTTATCCGCTCACAATTCCACTACT
B2 gave a Kd [3] of 9.5 nM.

B3: Osyn (perfectly symmetric synthetic operator) (dsDNA)
DNA 1: AGTAGTCTAGAATTGTGAGCGCTCACAATTCTAGAGTAGT
DNA 2: ACTACTCTAGAATTGTGAGCGCTCACAATTCTAGACTACT
Work on B3 yielded a Kd [3] of 1.1 nM.
